Laboratory results reported in US7132248 (dated 2006).

T1: rat GALR2 (rat)
T1 chain: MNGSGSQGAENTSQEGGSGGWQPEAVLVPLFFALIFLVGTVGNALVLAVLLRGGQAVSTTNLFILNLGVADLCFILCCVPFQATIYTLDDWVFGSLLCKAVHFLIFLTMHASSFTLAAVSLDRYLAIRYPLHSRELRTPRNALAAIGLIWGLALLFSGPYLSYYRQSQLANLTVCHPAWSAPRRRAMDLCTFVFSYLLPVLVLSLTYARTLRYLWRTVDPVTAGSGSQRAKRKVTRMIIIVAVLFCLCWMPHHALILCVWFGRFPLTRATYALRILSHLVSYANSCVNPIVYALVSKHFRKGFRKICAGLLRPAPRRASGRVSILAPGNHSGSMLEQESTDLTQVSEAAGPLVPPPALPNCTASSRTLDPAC

T2: human GALR2 (human)
T2 chain: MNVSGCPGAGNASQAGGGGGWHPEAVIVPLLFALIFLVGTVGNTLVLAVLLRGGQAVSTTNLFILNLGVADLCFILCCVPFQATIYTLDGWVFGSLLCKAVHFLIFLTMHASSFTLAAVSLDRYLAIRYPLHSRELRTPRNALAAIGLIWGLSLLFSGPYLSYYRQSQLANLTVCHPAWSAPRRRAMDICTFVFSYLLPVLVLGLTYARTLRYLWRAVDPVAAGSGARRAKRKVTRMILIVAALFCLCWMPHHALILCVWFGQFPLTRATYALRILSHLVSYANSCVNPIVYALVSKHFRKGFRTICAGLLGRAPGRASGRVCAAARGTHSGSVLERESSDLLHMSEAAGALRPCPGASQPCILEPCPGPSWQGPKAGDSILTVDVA

T3: rat GALR1 (rat, UniProt Q62805)
T3 chain: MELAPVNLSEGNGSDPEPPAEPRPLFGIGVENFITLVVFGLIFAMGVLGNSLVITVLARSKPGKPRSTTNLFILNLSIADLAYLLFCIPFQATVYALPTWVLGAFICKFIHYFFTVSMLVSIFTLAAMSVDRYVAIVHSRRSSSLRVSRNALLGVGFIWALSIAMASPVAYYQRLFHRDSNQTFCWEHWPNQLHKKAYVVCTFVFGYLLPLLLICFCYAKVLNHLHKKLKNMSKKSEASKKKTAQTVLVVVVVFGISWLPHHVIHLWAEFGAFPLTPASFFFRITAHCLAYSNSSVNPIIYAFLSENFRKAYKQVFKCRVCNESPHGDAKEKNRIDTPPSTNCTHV

B1: human galanin (protein)
chain: KRGWTLNSAGYLLGPHAVGNHRSFSDKNGLTSKRELRPEDDMKPGSFDRSIPENNIMRTIIEFLSFLHLKEAGALDRLLDLPAAASSEDIERS

Tests used:
rat GALR2 [1] = target: T1, rat GALR2; assay: competition, radioligand CHO
rat GALR2 [2] = target: T1, rat GALR2; assay: competition, radioligand COS-7
human GALR2 = target: T2, human GALR2; assay: competition, radioligand COS-7
rat GALR2 [3] = target: T1, rat GALR2; assay: competition, radioligand COS-7
rat GALR1 = target: T3, rat GALR1; assay: competition, radioligand COS-7

| Binder | Ki (rat GALR2 [1]) | Ki (human GALR2) | also measured |
| --- | --- | --- | --- |
| LASLLLASALSATLGLGSPVK [porcine galanin 9-29] | > 1000 nM | – | – |
| RGCALLLASLLLASALSATLGLGSPVK [porcine galanin (3-29)] | – | – | Ki (rat GALR2 [2]): > 100000 nM |
| ALSATLGLGSPVK [porcine galanin 17-29] | > 1000 nM | – | – |
| MPRGCALLLASLLLAS [galanin (1-16)] | – | 15 nM | Ki (rat GALR2 [2]): 1.74 nM |
| MARGSVILLAWLLLVATLSATLGLGMPTK [rat galanin] | – | 1 nM | Ki (rat GALR2 [3]): 0.52 nM |
| B1 | 1.2 nM | – | – |
| MPRGCALLL [porcine galanin 1-9] | > 1000 nM | – | – |
| MPRGCALLLASLLLASALSATLGLGSPVK [porcine galanin (1-29)] | – | 0.72 nM | Ki (rat GALR1): 0.457 nM |
